Source: US20190062427A1 (Alector, published 2019)
Numbering of substitutions follows the chain as printed.

B1: anti-Siglec-9 antibody 12B12 (antibody, V domains shown)
VH: EVQLVESGGGLVQPGGSLKLSCAASGFTFSNYGMSWVRQILDKRLELVATINSNGGRTYYPDSVKGRFTISRDNAKNTLYLQMSSLRSEDTAIYYCVTYYRYDSYAMDYWGQGTSVTVSS
VL: DIVLTQSPASLAVSLGQRATISCRASENVDSYGISFMHWYQQKPGQPPKLLIYRASNLESGIPARFSGSGSRTDFTLTINPVEADDVATYYCQQSNEDPWTFGGGTKLEIK
notes: Murine antibody; also called S9-12B12; S9-12B12.2
B2: anti-Siglec-9 antibody 2D5 (antibody, IgG1, V domains shown)
VH: QVQLQQSGPELVKPGASVKISCKASGYAFSSYWMNWVKQRPGKGLEWIGRIYPRDGDTNYNGKFKGKATLTADKSSSTAYMQLSSLTSEDSAVYFCARWLLRFAYWGQGTLVTVSA
VL: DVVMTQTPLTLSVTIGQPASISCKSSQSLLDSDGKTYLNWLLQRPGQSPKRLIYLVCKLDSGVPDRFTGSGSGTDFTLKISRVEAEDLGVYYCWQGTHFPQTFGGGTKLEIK
B3: anti-Siglec-9 antibody 5C6 (antibody, V domains shown)
VH: EVQLQQSGPELVKPGASVRISCKASGYTFTDYNIHWVKQSQGKSLEWIGYIYPYNGDTGYNQKFQNKATLTVDNSSSTAYMELRSLTSEDSAVYYCANGNYLYYYAMDYWGQGTSVTVSS
VL: DVVMTQTPLSLPVSLGDQVSISCSSSQSLVHSNGNTYLHWYLQKSGQSPKLLIYKVSNRFSGVPDRFRGSGSGTDFTLKISRVEAEDLGVYFCSQNTHVPLTFGAGTKLELK
notes: Murine antibody; also called S9-5C6; S9-5C6.3
B4: anti-Siglec-9 antibody 7H12 (antibody, V domains shown)
VH: QVQLQQSGAEVVKPGASVKLSCKAFGYTFTSYWMHWVKQRPGQGLEWIGEINPRDGVSNCNEKFTSKATLTVDTSSNTAYMQLNNLTSEDSAVYYCTIWEDYFDYWGQGTTLTVST
VL: NVZMTQTPLTLSVTLGQPASISCKSSQSLLYTNGKTYLNWLLQRPGQSPKLLIYLVSKLESGVPDRFSGSGSGTDFTLKINRVEAEDLGVYFCLQAPHFPLTFGGGTKLEMK
notes: the asterisk is not explained; the printed VL holds a 'Z' at position 3
B5: anti-Siglec-9 antibody 5B1 (antibody, IgG1, V domains shown)
VH: B4 VH
VL: B4 VL with Z3V, F92Y, P97T, G105A, M111L

Legend:
[1] = target: T1, Histidine-tagged human Siglec-9 (NovoProtein) (human, UniProt Q9Y336 18-348); assay: BLI ForteBio Octet RED96, mAb on AMC tips, His-tagged Siglec-9 3.13-50 nM; average of two assays
T1 construct: Bought protein; also called Siglec-9-his tagged protein; His-tagged Siglec 9 antigen; not shown: histidine tag
Method: (§1) Antibodies were captured on anti-mouse IgG Fc capture (AMC) biosensor tips, after which a baseline was run for 60 seconds. A 15 minute association step was performed in a dilution series of His-tagged Siglec 9 antigen, ranging from 3.13 nM to 50 nM, after which dissociation was measured over 60 minutes. Affinity constants (KD) were calculated from the ratio kd/kₐ.

[2] = target: T1, Histidine-tagged human Siglec-9 …; assay: BLI ForteBio Octet RED96, mAb on AMC tips, His-tagged Siglec-9 3.13-50 nM; assay 1; column head prints nM but kd/ka gives M
Method: as §1

[3] = target: T1, Histidine-tagged human Siglec-9 …; assay: BLI ForteBio Octet RED96, mAb on AMC tips, His-tagged Siglec-9 3.13-50 nM; assay 2; column head prints nM but kd/ka gives M
Method: as §1

[4] = target: T2, human Siglec-9 expressed on human cells (human, UniProt Q9Y336 18-463); assay: cell-based or functional assay
[5] = target: T2, human Siglec-9 expressed on human cells; assay: cell-based or functional assay; remark: listed apart in the source
[6] = target: T2, human Siglec-9 expressed on human cells; assay: flow cytometry on human primary monocytes, 10 ug/ml mAb, PE secondary
Method: (§2) Initial characterization of Siglec-9 antibodies involved determining their ability to bind Siglec-9 expressed on human primary monocytes, human primary macrophages, human primary dendritic cells, human primary neutrophils, and human primary natural killer (NK) cells. Cells were harvested, plated at 10⁶/ml in a 96 well plate, and incubated in 100ul PBS containing 2% FBS, 2 mM EDTA and 10 μg/ml Mab and Fc blocking reagent for 1 hour in ice. Cells were washed twice and incubated in 100ul PBS containing 2% FBS, 2 mM EDTA and 5 μg/ml PE-conjugated secondary antibody for 30 minutes on ice. Cells were washed twice in cold PBS and analyze by flow cytometry on a BD FACS Canto. Data analysis and calculation of MFI values was performed with FlowJo (TreeStar) software version 10.0.7.
(§3) Binding is compared to an isotype control. […] In Table 5, “Buffer” refers to cells that were treated only with the PBS buffer described supra; “Secondary Ab” refers to cells that were treated only with the PE-conjugated secondary antibody; and “mIgG1,” “mIgG2a,” and “mIgG2b” refer to isotype control antibodies.

[7] = target: T2, human Siglec-9 expressed on human cells; assay: flow cytometry on human primary macrophages, 10 ug/ml mAb, PE secondary
Method: as §2, §3

[8] = target: T2, human Siglec-9 expressed on human cells; assay: flow cytometry on human primary dendritic cells, 10 ug/ml mAb, PE secondary
Method: as §2, §3

[9] = target: T1, Histidine-tagged human Siglec-9 …; assay: SPR Biacore T200, 25 C, 25 nM mAb captured on anti-mouse IgG CM5 chip, His-tagged Siglec-9 100 nM as analyte, single-concentration 1:1 fit
Method: Affinity constants (KD) were calculated from the ratio kd/kₐ.

[10] = target: T3, Siglec-9-Fc (R&D Systems, catalog number 1139-SL-050) (human, UniProt Q9Y336 18-348); assay: FACS ligand competition: 25 ug/ml mAb pre-coupled with 25 ug/ml Siglec-9-Fc, binding to sialic acid ligands on U937 cells, anti-human IgG-PE
T3 construct: Bought fusion protein; also called Siglec-9-Fc fusion protein; not shown: human IgG1 Fc
Method: To determine whether Siglec-9 antibodies block binding to sialic acid ligands, U937 cells, which robustly express sialic acid ligands that predominantly bind to Siglec-9, were utilized in a FACS-based protocol. Briefly, 25 μg/ml Siglec-9 antibodies were pre-coupled with 25 μg/ml Siglec-9-Fc (R&D Systems, catalog number 1139-SL-050) for 20 minutes on ice in binding buffer (PBS with 0.25% BSA and 1 mM CaCl₂) in 96-well round bottom plates. […] Cells were pelleted and resuspended in goat anti-human IgG-PE (SouthernBiotech catalog number 2040-09) secondary antibody at 1:2000 dilution in binding buffer for 30 minutes. Cells were then washed three times and analyzed by flow cytometry on a BD FACS Canto. Data were analyzed on FlowJo version 10.0.6 (TreeStar).

[11] = target: T1, Histidine-tagged human Siglec-9 …; assay: SPR Biacore T200, 25 C, 25 nM mAb captured on anti-mouse IgG CM5 chip, His-tagged Siglec-9 200 nM as analyte, single-concentration 1:1 fit

T3 sequence (Q9Y336 18-348 limits assumed): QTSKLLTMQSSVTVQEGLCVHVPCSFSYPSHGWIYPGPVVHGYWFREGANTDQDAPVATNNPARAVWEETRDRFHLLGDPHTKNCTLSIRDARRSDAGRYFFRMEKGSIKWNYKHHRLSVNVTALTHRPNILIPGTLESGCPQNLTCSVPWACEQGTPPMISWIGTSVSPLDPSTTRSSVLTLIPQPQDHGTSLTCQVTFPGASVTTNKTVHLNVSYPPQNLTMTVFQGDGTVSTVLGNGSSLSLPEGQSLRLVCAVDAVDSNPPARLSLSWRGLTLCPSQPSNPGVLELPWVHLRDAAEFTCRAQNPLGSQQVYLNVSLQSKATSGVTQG
T1 sequence (Q9Y336 18-348 limits assumed): as above
T2 sequence (Q9Y336 18-463): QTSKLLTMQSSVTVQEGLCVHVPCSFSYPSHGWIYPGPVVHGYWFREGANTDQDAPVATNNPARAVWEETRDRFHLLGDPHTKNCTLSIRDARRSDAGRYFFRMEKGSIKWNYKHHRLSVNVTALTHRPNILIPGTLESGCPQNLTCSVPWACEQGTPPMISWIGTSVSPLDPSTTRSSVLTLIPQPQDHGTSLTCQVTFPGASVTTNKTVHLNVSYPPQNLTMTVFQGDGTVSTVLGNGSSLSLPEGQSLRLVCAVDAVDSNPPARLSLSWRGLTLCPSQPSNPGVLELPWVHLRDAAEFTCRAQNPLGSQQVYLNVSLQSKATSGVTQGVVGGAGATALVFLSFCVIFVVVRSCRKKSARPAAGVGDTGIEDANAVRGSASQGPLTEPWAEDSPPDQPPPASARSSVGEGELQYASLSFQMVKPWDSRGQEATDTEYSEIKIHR

Row | Binder | Kd [1] [nM] | Kd [2] [nM] | Kd [3] [nM] | Percent Siglec-9 Surface Expression, DCs (% Siglec-9) [4] [%] | Percent Siglec-9 Surface Expression, Monocytes (% Siglec-9) [4] [%] | Percent Siglec-9 Surface Expression, THP-1 cells (% Siglec-9) [4] [%] | Percent Siglec-9 Surface Expression, Macrophages (% Siglec-9) [5] [%] | Percent Siglec-9 Surface Expression, Microglia (% Siglec-9) [5] [%] | % Positive [6] [%] | MFI [6] | % Positive [7] [%] | MFI [7] | % Positive [8] [%] | MFI [8] | Kd [9] [nM] | Percent Siglec-9-Fc Binding [10] [%] | Kd [11] [nM]
1 | B1 | 0.76 | 0.639 | 0.879 |  |  |  |  |  |  |  |  |  |  |  |  |  | 
2 | B2 |  |  |  | 94.3 | 84.4 | 81.1 | 94.6 | 90.6 | 9.1 | 145 | 93.2 | 692 | 34.2 | 252 | 5.1 | 97.8 | 
3 | B3 | 0.54 | 0.532 | 0.557 |  |  |  |  |  |  |  |  |  |  |  |  |  | 
4 | B4 |  |  |  | 66.2 | 48.4 | 68.9 | 34.2 | 54.7 | 38.3 | 216 | 94.8 | 467 | 60.5 | 331 |  | 97.8 | 9
5 | B5 |  |  |  | 39.2 | 31.2 | 61.6 | 24.8 | 27.5 | 75.9 | 310 | 98.7 | 621 | 97.8 | 646 | 2.7 | 97.8 | 
